In article PMC3386944:

Biological target: HER3 receptor (human (endogenous in AU565)) (UniProt P21860)
Sequence of UniProt P21860 (P21860 20-1342): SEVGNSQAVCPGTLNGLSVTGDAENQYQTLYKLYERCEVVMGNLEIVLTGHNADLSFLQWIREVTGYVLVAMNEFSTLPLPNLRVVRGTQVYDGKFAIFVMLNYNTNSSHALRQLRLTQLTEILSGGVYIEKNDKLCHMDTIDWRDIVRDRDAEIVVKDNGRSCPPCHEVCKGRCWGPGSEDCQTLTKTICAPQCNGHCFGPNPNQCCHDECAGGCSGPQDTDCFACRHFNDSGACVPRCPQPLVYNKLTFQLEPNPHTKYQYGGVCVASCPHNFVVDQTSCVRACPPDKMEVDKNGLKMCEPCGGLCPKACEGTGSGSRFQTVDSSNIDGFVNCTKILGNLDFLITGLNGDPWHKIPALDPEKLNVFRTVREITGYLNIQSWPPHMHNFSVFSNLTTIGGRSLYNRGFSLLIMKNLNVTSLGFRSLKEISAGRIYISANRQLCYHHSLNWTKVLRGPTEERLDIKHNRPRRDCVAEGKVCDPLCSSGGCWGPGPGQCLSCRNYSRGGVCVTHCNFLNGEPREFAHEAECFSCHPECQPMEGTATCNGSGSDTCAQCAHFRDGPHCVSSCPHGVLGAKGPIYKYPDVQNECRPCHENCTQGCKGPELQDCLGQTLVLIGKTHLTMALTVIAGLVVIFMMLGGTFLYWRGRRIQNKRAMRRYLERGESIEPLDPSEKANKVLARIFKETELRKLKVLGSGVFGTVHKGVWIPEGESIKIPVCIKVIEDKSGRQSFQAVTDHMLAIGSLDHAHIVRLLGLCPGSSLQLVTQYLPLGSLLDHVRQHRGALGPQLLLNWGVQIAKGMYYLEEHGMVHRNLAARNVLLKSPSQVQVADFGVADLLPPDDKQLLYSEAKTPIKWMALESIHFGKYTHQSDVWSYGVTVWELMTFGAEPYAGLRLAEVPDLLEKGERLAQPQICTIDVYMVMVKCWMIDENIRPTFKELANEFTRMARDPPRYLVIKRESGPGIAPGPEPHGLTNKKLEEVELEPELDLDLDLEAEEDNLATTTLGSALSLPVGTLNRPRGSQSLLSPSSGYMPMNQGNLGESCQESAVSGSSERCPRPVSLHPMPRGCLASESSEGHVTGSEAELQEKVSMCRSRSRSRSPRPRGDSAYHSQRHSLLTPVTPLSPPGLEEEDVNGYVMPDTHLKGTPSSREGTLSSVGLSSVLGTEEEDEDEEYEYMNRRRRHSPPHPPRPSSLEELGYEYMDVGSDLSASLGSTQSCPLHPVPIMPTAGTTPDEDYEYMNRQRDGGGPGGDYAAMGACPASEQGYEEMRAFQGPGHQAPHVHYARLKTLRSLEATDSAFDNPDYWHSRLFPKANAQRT

Work on “heregulin (HRG, NRG1-β1/HRG1-β1 ECD domain), biotinylated (ligand)” yielded an IC50 of Affibody molecule Z05416 (no letters) for inhibition of growth of MCF-7 cells induced by 40 pM HRG (EGF domain construct), 5 days, CCK-8 of 19 nM, an IC50 of Affibody molecule Z05416 (no letters) for inhibition of growth of SKBR-3 cells induced by 40 pM HRG (EGF domain construct), 5 days, CCK-8 of 73 nM and an IC50 of Affibody molecule Z05417 (no letters) for inhibition of growth of MCF-7 cells induced by 40 pM HRG (EGF domain construct), 5 days, CCK-8 of 15 nM. The IC50 of Affibody molecule Z05417 (no letters) for inhibition of growth of SKBR-3 cells induced by 40 pM HRG (EGF domain construct), 5 days, CCK-8 was 65 nM.
